The values that follow come from publication PMC7156492.

The target of this experiment is tetrameric Y-complex fragment Nup120-Nup145C-Sec13-Nup85 (NPC-II) (Myceliophthora thermophila). Put plainly: mass photometry; mixture of NPC-I and NPC-II (NPC-III) diluted 10-fold from 482 nM immediately before measurement; 10 mM HEPES pH 7.5, 150 mM NaCl, 1 mM DTT, 0.1 mM EDTA; no cross-linker.
Sequence of tetrameric Y-complex fragment Nup120-Nup145C-Sec13-Nup85 (NPC-II) (Myceliophthora thermophila) (main, as listed by the source, chain 1 of 3): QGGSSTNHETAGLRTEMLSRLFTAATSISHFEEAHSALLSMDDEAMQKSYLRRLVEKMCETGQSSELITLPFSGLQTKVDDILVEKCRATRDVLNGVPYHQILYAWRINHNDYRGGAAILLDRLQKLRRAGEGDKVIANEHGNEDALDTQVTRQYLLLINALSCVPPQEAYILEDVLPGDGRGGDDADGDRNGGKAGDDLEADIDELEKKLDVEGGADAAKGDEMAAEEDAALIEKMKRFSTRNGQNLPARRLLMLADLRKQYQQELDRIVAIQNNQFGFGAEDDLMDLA
Sequence of tetrameric Y-complex fragment Nup120-Nup145C-Sec13-Nup85 (NPC-II) (Myceliophthora thermophila) (partner, as listed by the source, chain 2 of 3): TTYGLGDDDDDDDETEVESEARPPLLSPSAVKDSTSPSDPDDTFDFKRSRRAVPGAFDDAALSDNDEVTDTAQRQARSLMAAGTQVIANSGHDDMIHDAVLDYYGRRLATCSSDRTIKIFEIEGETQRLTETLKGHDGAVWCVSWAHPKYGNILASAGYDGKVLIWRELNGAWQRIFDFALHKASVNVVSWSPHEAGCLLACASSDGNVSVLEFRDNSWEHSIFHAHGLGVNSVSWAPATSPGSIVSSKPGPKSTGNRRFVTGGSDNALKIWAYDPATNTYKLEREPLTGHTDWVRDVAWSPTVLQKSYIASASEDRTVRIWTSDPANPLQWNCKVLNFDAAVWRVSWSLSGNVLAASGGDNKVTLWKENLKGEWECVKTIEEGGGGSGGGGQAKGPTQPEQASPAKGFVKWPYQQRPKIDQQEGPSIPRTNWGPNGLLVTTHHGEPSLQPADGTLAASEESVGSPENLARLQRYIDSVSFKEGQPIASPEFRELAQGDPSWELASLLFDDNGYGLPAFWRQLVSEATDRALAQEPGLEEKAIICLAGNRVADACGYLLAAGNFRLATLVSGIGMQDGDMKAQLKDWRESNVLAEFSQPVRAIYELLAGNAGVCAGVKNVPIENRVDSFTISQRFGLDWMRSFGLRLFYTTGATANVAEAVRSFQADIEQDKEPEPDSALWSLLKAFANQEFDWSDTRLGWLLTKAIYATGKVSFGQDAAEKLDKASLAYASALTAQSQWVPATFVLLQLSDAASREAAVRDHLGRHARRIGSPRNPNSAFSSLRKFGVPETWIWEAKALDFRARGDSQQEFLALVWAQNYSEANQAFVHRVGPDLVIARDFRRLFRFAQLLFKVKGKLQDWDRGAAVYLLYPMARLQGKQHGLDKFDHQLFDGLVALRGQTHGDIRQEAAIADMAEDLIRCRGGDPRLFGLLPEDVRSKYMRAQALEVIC
Sequence of tetrameric Y-complex fragment Nup120-Nup145C-Sec13-Nup85 (NPC-II) (Myceliophthora thermophila) (partner, as listed by the source, chain 3 of 3): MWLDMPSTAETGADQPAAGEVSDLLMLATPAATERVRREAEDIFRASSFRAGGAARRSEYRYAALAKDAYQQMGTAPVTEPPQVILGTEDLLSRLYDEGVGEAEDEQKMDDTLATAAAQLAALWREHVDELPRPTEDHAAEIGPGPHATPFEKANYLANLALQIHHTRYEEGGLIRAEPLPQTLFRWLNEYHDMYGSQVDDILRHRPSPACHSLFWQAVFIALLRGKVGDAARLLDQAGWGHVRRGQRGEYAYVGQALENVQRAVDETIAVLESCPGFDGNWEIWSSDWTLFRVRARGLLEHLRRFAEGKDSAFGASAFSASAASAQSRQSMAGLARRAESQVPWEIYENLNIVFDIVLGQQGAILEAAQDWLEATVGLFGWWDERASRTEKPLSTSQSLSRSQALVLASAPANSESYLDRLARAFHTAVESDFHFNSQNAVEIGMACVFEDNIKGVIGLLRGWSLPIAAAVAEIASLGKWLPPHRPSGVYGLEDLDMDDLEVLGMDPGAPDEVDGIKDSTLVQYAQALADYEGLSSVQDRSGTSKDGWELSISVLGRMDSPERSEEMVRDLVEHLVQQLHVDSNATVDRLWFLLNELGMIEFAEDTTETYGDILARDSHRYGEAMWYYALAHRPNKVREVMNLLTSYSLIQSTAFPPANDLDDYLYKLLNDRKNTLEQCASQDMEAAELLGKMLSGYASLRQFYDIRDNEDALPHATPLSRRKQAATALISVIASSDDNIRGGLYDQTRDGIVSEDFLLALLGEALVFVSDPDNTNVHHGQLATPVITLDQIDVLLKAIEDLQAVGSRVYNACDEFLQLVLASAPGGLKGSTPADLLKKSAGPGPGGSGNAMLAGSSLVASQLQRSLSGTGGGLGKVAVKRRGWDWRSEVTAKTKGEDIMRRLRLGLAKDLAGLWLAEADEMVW

For “tetrameric Nup82-Nup145N-Nup159-Nsp1 complex (NPC-I)”, the stoichiometry N stood at 1.
